Data published in publication PMC2691818.

Legend:
[1] = target: T1, h-mtTFA box B (mtTFA110-179) (Homo sapiens, UniProt Q00059 152-221); test: EMSA
T1 sequence: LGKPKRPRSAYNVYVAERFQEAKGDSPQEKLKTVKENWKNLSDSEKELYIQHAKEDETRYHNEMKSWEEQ

h-mtTFA1-179 [2] = target: T2, h-mtTFA1-179 (Homo sapiens, UniProt Q00059 43-221); test: competition
T2 sequence: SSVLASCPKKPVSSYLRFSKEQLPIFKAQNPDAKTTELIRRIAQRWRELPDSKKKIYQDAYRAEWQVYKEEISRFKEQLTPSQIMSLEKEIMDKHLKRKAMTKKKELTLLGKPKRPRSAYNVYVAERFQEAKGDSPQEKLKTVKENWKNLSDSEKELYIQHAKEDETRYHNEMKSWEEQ

[3] = target: T3, h-mtTFA full-length (mature) (Homo sapiens, UniProt Q00059 43-246); test: EMSA
T3 sequence: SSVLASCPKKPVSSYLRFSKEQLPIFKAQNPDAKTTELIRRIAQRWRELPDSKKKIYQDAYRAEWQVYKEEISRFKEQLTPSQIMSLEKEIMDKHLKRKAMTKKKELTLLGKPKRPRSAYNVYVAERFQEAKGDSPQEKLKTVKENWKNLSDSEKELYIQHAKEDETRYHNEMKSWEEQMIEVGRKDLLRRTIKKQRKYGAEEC

h-mtTFA1-179 [4] = target: T2, h-mtTFA1-179; test: EMSA

B1: 30 bp LSP DNA, unlabeled (dsDNA)
DNA 1: GTGTTAGTTGGGGGGTGACTGTTAAAAGTG
DNA 2: CACTTTTAACAGTCACCCCCCAACTAACAC
[1]
  binding result: no binding

B2: 30 bp scrambled nonspecific DNA (NS DNA) (dsDNA)
DNA 1: ACTACTAACAGACCGCAACCTAAACACAAC
DNA 2: GTTGTGTTTAGGTTGCGGTCTGTTAGTAGT
h-mtTFA1-179 [2]
  binding result: binds

B3: 30 bp LSP DNA, 32P-labeled (dsDNA)
DNA 1: GTGTTAGTTGGGGGGTGACTGTTAAAAGTG
DNA 2: CACTTTTAACAGTCACCCCCCAACTAACAC
[3]
  Kd: 5.4 ± 0.6 nM
h-mtTFA1-179 [4]
  Kd: 12 ± 1.7 nM
